The results in this text go back to article PMC3776215.

The assay deals with Recombinant human urokinase-type plasminogen activator receptor (uPAR) (human) (UniProt Q03405). The assay can be described thus: SPR. A general note: Surface plasmon resonance follows binding to a sensor surface in real time, without labels.
UniProt Q03405, sequence (Q03405 23-305): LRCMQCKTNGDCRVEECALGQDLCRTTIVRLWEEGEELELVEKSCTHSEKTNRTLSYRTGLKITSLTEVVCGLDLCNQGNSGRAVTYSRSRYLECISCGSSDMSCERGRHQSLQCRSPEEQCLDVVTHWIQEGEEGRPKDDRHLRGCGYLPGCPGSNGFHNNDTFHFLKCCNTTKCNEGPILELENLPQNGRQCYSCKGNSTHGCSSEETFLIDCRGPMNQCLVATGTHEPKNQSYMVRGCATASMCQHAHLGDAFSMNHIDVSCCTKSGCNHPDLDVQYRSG
As a reminder, the IC50 is the concentration at which inhibition is half-maximal. For orientation: Kd means the free concentration of one partner at which half of the binding sites on the other are occupied at equilibrium, for simple one-to-one binding. The term koff denotes a measure of how fast the partners let go of each other. As usually defined, the kon is the rate constant with which the complex forms. As for DOTA-AE105 (peptide), the IC50 worked out at 6.7 nM, the Kd came out at 9.4 nM, the koff was 0.0043 s⁻¹ and the on-rate constant (kon) worked out at 460000 M⁻¹ s⁻¹.

For the substance CB-TE2A-AE105 (peptide), the IC50 worked out at 5.9 nM, the Kd came to 7.7 nM and the koff was 0.0046 s⁻¹.

With DOTA-AE105^mut (peptide), the IC50 is above 1000 nM.

Take CB-TE2A-PA-AE105 (peptide): the half-maximal inhibitory concentration (IC50) worked out at 6.1 nM, the Kd amounted to 27 nM, the koff was 0.0108 s⁻¹ and the kon is 400000 M⁻¹ s⁻¹.

As to CB-TE2A-AE105^mut (peptide), the 50% inhibitory concentration (IC50) is above 1000 nM.

Consider CB-TE2A-PA-AE105^mut (peptide), for which the IC50 is above 1000 nM.

With “AE105 (Asp-Cha-Phe-(D)Ser-(D)Arg-Tyr-Leu-Trp-Ser) (peptide)”, the IC50 was 6.7 nM and the kon was 620000 M⁻¹ s⁻¹.
